According to US20260317399 (published 2026):
Where a chain is given by its changes, count along the chain named.

T1: FcgRIa (human, UniProt P12314)
T1 chain: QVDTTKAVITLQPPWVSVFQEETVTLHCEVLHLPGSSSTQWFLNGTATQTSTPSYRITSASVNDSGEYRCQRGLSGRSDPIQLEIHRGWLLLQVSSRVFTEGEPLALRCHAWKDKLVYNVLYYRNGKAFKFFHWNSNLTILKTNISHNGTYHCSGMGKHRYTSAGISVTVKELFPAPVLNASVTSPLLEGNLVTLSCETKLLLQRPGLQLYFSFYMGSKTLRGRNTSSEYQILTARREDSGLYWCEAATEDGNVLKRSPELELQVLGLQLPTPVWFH

T2: FcgRIIaH (human, UniProt P12318)
T2 chain: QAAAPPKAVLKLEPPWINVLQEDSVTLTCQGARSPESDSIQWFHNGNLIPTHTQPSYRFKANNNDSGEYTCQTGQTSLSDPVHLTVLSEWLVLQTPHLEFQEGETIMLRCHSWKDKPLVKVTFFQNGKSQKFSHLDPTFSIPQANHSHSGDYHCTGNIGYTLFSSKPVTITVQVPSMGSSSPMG

B1: BP557 (antibody)
chain 1: QVQLQESGPGLVKPSETLSLTCAVSGHSISHDHAWSWVRQPPGEGLEWIGFISYSGITNYNPSLQGRVTISRDNSKNTLYLQMNSLRAEDTAVYYCARSLARTTAMDYWGEGTLVTVSSASTKGPSVFPLAPSSKSTSGGTAALGCLVKDYFPEPVTVSWNSGALTSGVHTFPAVLQSSGLYSLSSVVTVPSSSLGTQTYICNVNHKPSNTKVDKKVEPKSCDKTHTCPPCPAPELLGDDSVFLFPPKPKDTLMISRTPEVTCVVVDVGDEDGEVKFNWYVDGVEVHNAKTKPREEQDNSTYRVVSVLTVLHQDWLNGKEYKCKVSNKALPRPIEKTISKAKGQPREPQVYTLPPSRDELTKNQVSLTCLVKGFYPSDIAVEWESNGQPENNYKTTPPVLDSDGSFFLYSKLTVDKSRWQQGNVFSCSVMHEALHNHYTQESLSLSP
chain 2: not shown
B2: IL6R-AP029/IL6R-BP408/IL6R-L (antibody)
chain 1: B1 chain 1 with E235D, G269S, D270E, D358K, H437R, E441K
chain 2: B1 chain 1 with E235D, L237Q, G269S, D270E
chain 3: not shown
B3: IL6R-AP029/IL6R-BP410/IL6R-L (antibody)
chain 1: B1 chain 1 with E235D, G269S, D270E, D358K, H437R, E441K
chain 2: B1 chain 1 with E235D, L237T, G269S, D270E
chain 3: not shown
B4: IL6R-AP029/IL6R-BP409/IL6R-L (antibody)
chain 1: B1 chain 1 with E235D, G269S, D270E, D358K, H437R, E441K
chain 2: B1 chain 1 with E235D, L237E, G269S, D270E
chain 3: not shown
B5: IL6R-BP408/IL6R-L (antibody)
chain 1: B1 chain 1 with E235D, L237Q, G269S, D270E
chain 2: not shown
B6: IL6R-AP029/IL6R-BP407/IL6R-L (antibody)
chain 1: B1 chain 1 with E235D, G269S, D270E, D358K, H437R, E441K
chain 2: B1 chain 1 with E235D, L237D, G269S, D270E
chain 3: not shown
B7: IL6R-BP404/IL6R-L (antibody)
chain 1: B1 chain 1 with E235D, L236Y, G269S, D270E
chain 2: not shown
B8: IL6R-BP419/IL6R-L (antibody)
chain 1: B1 chain 1 with E235D, L237F, G269S, D270E
chain 2: not shown
B9: IL6R-AP002/IL6R-BP257/IL6R-L (antibody)
chain 1: B1 chain 1 with E235D, G269S, D298Y, D358K, H437R, E441K
chain 2: B1 chain 1 with S126E, E235D, G269S, D298Y
chain 3: not shown
B10: IL6R-AP009/IL6R-BP259/IL6R-L (antibody)
chain 1: B1 chain 1 with E235D, G269S, D358K, H437R, E441K
chain 2: B1 chain 1 with S126D, E235D, G269S
chain 3: not shown
B11: IL6R-BP259/IL6R-L (antibody)
chain 1: B1 chain 1 with S126D, E235D, G269S
chain 2: not shown
B12: IL6R-BP260/IL6R-L (antibody)
chain 1: B1 chain 1 with S126E, E235D, G269S
chain 2: not shown
B13: IL6R-BP257/IL6R-L (antibody)
chain 1: B1 chain 1 with S126E, E235D, G269S, D298Y
chain 2: not shown
B14: IL6R-BP256/IL6R-L (antibody)
chain 1: B1 chain 1 with S126D, E235D, G269S, D298Y
chain 2: not shown
B15: IL6R-AP009/IL6R-BP260/IL6R-L (antibody)
chain 1: B1 chain 1 with E235D, G269S, D358K, H437R, E441K
chain 2: B1 chain 1 with S126E, E235D, G269S
chain 3: not shown
B16: IL6R-AP002/IL6R-BP256/IL6R-L (antibody)
chain 1: B1 chain 1 with E235D, G269S, D298Y, D358K, H437R, E441K
chain 2: B1 chain 1 with S126D, E235D, G269S, D298Y
chain 3: not shown

Biological target: T1, FcgRIa
Assay: SPR

Kd [µM]	Binder
0.013	B1

Biological target: T2, FcgRIIaH
Assay: SPR

Kd [µM]	Binder
8.2	B2
5.1	B3
9.4	B4
77	B5
8.9	B6
3.4	B7
38	B8

biological target: T3, FcgRIIIaV (human, UniProt P08637); assay: SPR
T3 sequence (P08637 17-208 F176V): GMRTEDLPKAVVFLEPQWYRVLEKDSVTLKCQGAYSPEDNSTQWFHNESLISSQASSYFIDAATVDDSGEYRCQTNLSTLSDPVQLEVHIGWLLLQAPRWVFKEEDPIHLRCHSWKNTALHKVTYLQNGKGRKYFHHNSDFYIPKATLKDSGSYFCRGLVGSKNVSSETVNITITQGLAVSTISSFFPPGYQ

Kd [µM]	Binder
14	B9
22	B10
11	B11
21	B12
19	B13
11	B14
16	B15
17	B16

biological target: T3, FcgRIIIaV; assay: SPR; remark: another data set of the same source

Kd [µM]	Binder
31	B2
21	B3
28	B4
50	B5
23	B6
33	B7
38	B8

Biological target: T2, FcgRIIaH
Assay: SPR
Remark: another data set of the same source

Kd [µM]	Binder
18	B11
3.9	B12
39	B13
21	B14
